Literature values in patent US9486409B2, “Peptide nanoparticles and uses therefor” (Anterios, Inc., priority 2006, dated 2016).

Conditions: unmodified peptide, prior studies (Katayama et al.)

## KTTKS (peptide that may promote extra-cellular matrix production) [unmodified pentapeptide known to promote extra-cellular matrix production]
  penetration of intact skin: cannot penetrate the intact skin without chemical modification
